The target in one assay is T1, Semaphorin 3a (UniProt Q14563 21-771, limits assumed).
T1 construct: also called Sema 3a
T1 sequence (looked up): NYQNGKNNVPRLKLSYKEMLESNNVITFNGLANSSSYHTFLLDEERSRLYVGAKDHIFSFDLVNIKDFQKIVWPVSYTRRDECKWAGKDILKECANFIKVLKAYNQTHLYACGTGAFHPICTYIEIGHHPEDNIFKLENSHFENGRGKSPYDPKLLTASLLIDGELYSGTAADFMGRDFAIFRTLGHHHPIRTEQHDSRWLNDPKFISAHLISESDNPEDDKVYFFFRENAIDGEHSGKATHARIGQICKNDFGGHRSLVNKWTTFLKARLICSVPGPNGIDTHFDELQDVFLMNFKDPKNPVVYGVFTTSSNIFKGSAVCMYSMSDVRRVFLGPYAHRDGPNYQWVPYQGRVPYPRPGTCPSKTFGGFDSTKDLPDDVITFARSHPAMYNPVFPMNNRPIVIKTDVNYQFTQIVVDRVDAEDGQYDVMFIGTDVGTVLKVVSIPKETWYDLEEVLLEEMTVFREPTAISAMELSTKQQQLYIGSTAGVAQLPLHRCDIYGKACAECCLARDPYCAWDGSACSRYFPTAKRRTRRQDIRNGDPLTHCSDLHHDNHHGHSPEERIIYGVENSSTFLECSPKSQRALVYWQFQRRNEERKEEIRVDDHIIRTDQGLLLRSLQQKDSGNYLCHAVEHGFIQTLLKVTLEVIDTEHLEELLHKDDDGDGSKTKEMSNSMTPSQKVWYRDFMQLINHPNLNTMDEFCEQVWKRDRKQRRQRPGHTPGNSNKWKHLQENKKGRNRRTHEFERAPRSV
Kind of assay: ELISA: antigen coated at 1 ug/mL, antibody dilution series, goat anti-human Fab-HRP, A450; panel Human Sema3a. On the technique in general: An ELISA detects its analyte on a solid surface through an enzyme-linked reagent.

The target of a further assay is T2, HER3 (UniProt P21860 20-643, limits assumed).
T2 construct: also called EGFR HER family protein HER3
Kind of assay: ELISA: antigen coated at 1 ug/mL, antibody dilution series, goat anti-human Fab-HRP, A450; panel Human HER3.

For another assay, the target named is Ron (CD136) (UniProt Q04912 25-957, limits assumed). Kind of assay: ELISA: antigen coated at 1 ug/mL, antibody dilution series, goat anti-human Fab-HRP, A450; panel Human Ron (CD136).
The target in assay [1] is T3, Human cMET (recombinant, soluble monomeric) (human, UniProt P08581 25-932).
T3 construct: in the HTRF assay it is called the human cMET receptor; also called His-tagged cMET antigen
Description: ELISA: antigen coated at 1 ug/mL, antibody dilution series, goat anti-human Fab-HRP, A450; panel Human cMET.

Assay [2] has as its target T4, Human EGFR (recombinant, soluble monomeric) (human, UniProt P00533 25-645).
T4 construct: also called EGFR antigen
Kind of assay: SPR, Biacore T200, antibody captured on anti-human IgG, soluble monomeric antigen as analyte, 25 C. (In SPR one partner is held on a chip, and binding of the other changes the refractive index at the surface.)

Assay [3] has as its target T5, Mouse EGFR (recombinant, soluble monomeric) (mouse, UniProt Q01279 25-647).
T5 construct: also called murine EGFR
The description is as above.

The target of assay [4] is T6, Cynomolgus monkey EGFR (recombinant, soluble monomeric) (cynomolgus monkey, UniProt P55245 25-645 (rhesus entry)).
T6 construct: also called cyno EGFR
Described as above.

In a further assay the target is T7, HER2 (UniProt P04626 23-652, limits assumed).
T7 construct: also called EGFR HER family protein HER2
Description: ELISA: antigen coated at 1 ug/mL, antibody dilution series, goat anti-human Fab-HRP, A450; panel Human HER2.

A further assay addresses Mouse cMET (recombinant) (mouse, UniProt P16056 25-929, limits assumed). Kind of assay: ELISA: antigen coated at 1 ug/mL, antibody dilution series, goat anti-human Fab-HRP, A450; panel Mouse cMET.
For the next assay, the target named is T8, HER4 (UniProt Q15303 26-649, limits assumed).
T8 construct: also called EGFR HER family protein HER4
T8 sequence (looked up): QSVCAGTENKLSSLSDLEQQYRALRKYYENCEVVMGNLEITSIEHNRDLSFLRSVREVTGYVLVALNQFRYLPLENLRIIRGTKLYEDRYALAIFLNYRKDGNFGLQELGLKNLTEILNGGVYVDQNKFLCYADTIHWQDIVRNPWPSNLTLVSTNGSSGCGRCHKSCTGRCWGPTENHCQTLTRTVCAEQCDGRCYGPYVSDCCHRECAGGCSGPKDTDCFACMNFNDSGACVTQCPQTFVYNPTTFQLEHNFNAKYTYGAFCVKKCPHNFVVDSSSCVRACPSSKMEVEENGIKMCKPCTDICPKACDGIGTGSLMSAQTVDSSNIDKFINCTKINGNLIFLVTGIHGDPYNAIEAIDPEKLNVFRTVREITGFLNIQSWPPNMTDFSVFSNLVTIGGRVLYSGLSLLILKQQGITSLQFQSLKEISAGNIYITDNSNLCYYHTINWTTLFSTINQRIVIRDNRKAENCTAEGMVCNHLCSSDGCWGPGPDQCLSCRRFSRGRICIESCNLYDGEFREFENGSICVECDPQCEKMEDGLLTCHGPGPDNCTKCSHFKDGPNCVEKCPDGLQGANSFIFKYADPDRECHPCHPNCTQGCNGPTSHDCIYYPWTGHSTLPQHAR
Kind of assay: ELISA: antigen coated at 1 ug/mL, antibody dilution series, goat anti-human Fab-HRP, A450; panel Human HER4.

Assay [5] deals with T9, Cynomolgus monkey cMET (recombinant, soluble monomeric) (cynomolgus monkey, UniProt A0M8R7 25-932 (Papio anubis entry)).
T9 construct: also called cyno cMET
Description: ELISA: antigen coated at 1 ug/mL, antibody dilution series, goat anti-human Fab-HRP, A450; panel Cynomolgus cMET.

Assay [6] addresses T3, Human cMET (recombinant, soluble …). Description: Octet biolayer interferometry, antigen capture format: His-tagged human cMET on NI-NTA sensors, then antibody (66 nM), then human EGFR (500 nM). For orientation: BLI is a label-free optical method that tracks binding on a fibre tip over time.
Assay [7] shares this target. Description: SPR, Biacore T200, antibody captured on anti-human IgG, soluble monomeric antigen as analyte, 25 C.
The target in assay [8] is T9, Cynomolgus monkey cMET (recombinant, …). The description is as above.
The target of assay [9] is T6, Cynomolgus monkey EGFR (recombinant, …). Description: ELISA: antigen coated at 1 ug/mL, antibody dilution series, goat anti-human Fab-HRP, A450; panel Cynomolgus EGFR.
Assay [10] addresses T4, Human EGFR (recombinant, soluble …). Kind of assay: Octet biolayer interferometry, antigen capture format: His-tagged human cMET on NI-NTA sensors, then antibody (66 nM), then human EGFR (500 nM).
In assay [11] the target is T5, Mouse EGFR (recombinant, soluble …). Description: ELISA: antigen coated at 1 ug/mL, antibody dilution series, goat anti-human Fab-HRP, A450; panel Mouse EGFR.

Substitutions are numbered along the chain they refer to.

These results are taken from patent publication US20260166140A1, “Combinations Involving Epidermal Growth Factor Receptor Tyrosine Kinase Inhibitors For the Treatment of Cancer” (AstraZeneca AB, priority 2022, published 2026).

Broadly, the Kd is the constant that tells how readily two partners part at equilibrium. Broadly, the koff is the rate constant with which the complex falls apart. One may read the kon as the rate constant with which the complex forms.

Sequence of Mouse cMET (recombinant) (P16056 25-929 limits assumed): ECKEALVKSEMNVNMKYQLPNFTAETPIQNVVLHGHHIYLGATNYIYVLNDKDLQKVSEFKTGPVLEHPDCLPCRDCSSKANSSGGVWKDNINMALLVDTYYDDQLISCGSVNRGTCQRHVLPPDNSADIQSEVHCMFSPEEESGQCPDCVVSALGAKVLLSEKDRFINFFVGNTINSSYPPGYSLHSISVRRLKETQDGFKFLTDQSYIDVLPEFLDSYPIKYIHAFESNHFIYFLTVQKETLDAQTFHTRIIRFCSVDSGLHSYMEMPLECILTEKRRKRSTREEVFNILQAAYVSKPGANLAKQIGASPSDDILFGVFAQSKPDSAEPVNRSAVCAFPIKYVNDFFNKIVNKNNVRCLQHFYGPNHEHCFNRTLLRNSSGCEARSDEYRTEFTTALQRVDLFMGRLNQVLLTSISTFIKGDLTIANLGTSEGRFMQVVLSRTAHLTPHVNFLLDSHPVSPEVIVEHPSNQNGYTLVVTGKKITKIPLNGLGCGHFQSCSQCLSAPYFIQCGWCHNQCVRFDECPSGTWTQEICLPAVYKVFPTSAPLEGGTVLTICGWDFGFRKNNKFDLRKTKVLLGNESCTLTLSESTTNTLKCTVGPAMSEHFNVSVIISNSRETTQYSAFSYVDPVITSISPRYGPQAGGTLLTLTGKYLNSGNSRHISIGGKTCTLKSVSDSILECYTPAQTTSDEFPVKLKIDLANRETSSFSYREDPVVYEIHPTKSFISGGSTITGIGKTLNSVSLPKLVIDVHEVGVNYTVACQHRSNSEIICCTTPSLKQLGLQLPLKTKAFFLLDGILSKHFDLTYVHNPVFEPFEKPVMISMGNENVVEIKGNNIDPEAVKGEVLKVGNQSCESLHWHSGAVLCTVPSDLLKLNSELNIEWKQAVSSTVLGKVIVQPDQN
T9 sequence (A0M8R7 25-932 S170N/I621T): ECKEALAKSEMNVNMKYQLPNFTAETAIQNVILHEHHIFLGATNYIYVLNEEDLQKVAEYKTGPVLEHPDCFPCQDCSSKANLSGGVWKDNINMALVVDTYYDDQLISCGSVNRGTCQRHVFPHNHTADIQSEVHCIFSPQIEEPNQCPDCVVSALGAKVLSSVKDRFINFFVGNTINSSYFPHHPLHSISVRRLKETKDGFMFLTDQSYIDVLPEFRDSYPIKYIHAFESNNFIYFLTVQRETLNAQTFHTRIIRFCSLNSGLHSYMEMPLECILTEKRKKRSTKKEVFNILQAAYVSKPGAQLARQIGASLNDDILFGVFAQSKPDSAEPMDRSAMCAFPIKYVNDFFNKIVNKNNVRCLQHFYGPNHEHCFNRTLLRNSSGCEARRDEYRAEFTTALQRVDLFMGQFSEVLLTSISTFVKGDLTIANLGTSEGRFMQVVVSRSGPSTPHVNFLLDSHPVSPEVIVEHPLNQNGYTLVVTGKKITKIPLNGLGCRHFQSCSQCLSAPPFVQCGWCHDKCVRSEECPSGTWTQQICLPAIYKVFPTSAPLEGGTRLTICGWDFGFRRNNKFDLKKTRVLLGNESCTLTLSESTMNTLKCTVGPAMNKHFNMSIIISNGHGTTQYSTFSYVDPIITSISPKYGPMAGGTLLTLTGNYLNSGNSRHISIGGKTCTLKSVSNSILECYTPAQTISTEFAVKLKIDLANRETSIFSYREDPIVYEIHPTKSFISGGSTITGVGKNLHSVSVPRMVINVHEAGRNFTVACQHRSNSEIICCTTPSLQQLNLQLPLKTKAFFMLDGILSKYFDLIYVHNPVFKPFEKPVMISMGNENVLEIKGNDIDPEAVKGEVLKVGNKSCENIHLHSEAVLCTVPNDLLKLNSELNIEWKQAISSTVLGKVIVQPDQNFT
T3 sequence (P08581 25-932): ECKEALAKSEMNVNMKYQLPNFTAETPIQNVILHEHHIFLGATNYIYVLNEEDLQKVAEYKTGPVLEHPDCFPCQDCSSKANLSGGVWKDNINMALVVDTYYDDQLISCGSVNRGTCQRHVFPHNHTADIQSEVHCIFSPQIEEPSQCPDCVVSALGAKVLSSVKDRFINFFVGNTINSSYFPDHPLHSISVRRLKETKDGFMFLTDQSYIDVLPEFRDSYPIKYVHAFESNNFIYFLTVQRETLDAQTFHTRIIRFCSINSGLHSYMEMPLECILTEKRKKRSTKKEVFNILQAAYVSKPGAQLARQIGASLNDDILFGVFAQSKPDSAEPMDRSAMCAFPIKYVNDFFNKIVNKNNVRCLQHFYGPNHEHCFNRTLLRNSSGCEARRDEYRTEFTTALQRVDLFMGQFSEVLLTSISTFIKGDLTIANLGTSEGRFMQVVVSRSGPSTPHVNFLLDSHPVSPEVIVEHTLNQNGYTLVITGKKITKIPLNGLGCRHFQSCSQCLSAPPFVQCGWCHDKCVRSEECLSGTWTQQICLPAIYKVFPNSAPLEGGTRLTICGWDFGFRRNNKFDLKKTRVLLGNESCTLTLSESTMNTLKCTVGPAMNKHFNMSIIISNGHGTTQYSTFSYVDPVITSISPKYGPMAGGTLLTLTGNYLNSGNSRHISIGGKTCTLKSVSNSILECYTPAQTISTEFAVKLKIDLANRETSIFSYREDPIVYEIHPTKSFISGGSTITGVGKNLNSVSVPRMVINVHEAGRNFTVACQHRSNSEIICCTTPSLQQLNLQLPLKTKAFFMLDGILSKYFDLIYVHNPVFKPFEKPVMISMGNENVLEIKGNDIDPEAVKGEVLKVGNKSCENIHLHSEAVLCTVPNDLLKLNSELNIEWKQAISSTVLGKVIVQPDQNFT

B1: RAA22 IgG (antibody, V domains shown)
VH: QVQLVQSGAEVKKPGSSVKVSCKASGGTFSDNDFSWVRQAPGQGLEWMGAIVAVFRTETYAQKFQDRVKITADISTRTTYMELSSLRSEDTAVYYCARRLMSAISGPGAPLLMWGQGTLVTVSS
VL: QSALTQPRSVSGSPGQSVTISCTGTSSDVGGYNYVSWYQQHPGKAPKLMIYDVSKRPSGVPDRFSGSKSGNTASLTISGLQAEDEADYYCSSYTSSDTLEIFGGGTKLTVL
For B1, the binding result (with Semaphorin 3a; in the assay with HER3; in the assay with Ron (CD136); in [1]; in the assay with HER2; with Mouse cMET (recombinant)) was “no binding (tested: 10 ug/ml)” in each case. For the same molecule, the binding result (in the assay with HER4; in [5]) was “no binding (tested: 10 ug/ml)” each time. The values for the Kd in assay [2], in assay [3] and in assay [4] were 46.6 nM, 488 nM and 170 nM, respectively. For the same molecule, the results for the koff in assay [2], in assay [3] and in assay [4] were 0.00206 s⁻¹, 0.019 s⁻¹ and 0.00601 s⁻¹, respectively. The kon came out at 44100 M⁻¹ s⁻¹ in assay [2], 40300 M⁻¹ s⁻¹ in assay [3] and 35400 M⁻¹ s⁻¹ in assay [4].

B2: QD6 IgG (antibody, V domains shown)
VH: B1 VH with F55V
VL: B1 VL with K55E, S91F
notes: also called anti-EGFR antibody clone QD6
Take B2: the binding result in the assay with Semaphorin 3a was “no binding (tested: 10 ug/ml)”; in the assay with HER3, “no binding (tested: 10 ug/ml)”; in the assay with Ron (CD136) it was “no binding (tested: 10 ug/ml)”; with HER2, “no binding (tested: 10 ug/ml)”; with Mouse cMET (recombinant), “no binding (tested: 10 ug/ml)”; in [6], “no binding (tested: 66 nM)”. In addition, the binding result (in the assay with HER4; in assay [5]) was “no binding (tested: 10 ug/ml)” each time. In addition, the Kd in assay [2] was found to be 2 nM; in [3] it was 4.4 nM; in assay [4], 2.5 nM. Besides, the figures for the koff in assay [2], in [3] and in [4] were 0.000292 s⁻¹, 0.000735 s⁻¹ and 0.000288 s⁻¹, respectively. The kon in assay [2] turned out to be 148000 M⁻¹ s⁻¹; in assay [3], 167000 M⁻¹ s⁻¹; in assay [4], 114000 M⁻¹ s⁻¹.

B3: B09-57 IgG (antibody, V domains shown)
VH: QVQLVQSGAEVKKPGASVKVSCKASGYTFTDYYIHWVRQATGQGLEWMGWMNPNSGNTGYAQKFQGRVTMTRDTSISTAYMELSSLRSEDTAVYYCARGQGYTHSWGQGTMVTVSS
VL: DIQMTQSPSTLSASVGDRVTITCRASEGIYHWLAWYQQKPGKAPKLLIYKASSLASGVPSRFSGSGSGTEFTLTISSLQPDDFATYYCQQYSNYPPTFGGGTKLEIK
notes: also called B09-GL; cMET IgG B09
On to B3, for which the binding result (with Semaphorin 3a; with HER3; with Ron (CD136); in the assay with HER2; in [9]; in the assay with Mouse cMET (recombinant)) was “no binding (tested: 10 ug/ml)” throughout. The figures for the binding result (in assay [10]; in assay [11]; in the assay with HER4) were “no binding (tested: 500 nM EGFR)”, “no binding (tested: 10 ug/ml)” and “no binding (tested: 10 ug/ml)”, respectively. Further, the Kd in assay [7] came to 1.6 nM; in assay [8], 1.9 nM. For the same molecule, the koff in assay [7] amounted to 0.000882 s⁻¹; in assay [8] it was 0.00194 s⁻¹. The values for the kon in assay [7] and in [8] were 563000 M⁻¹ s⁻¹ and 1.04e+06 M⁻¹ s⁻¹, respectively.
